Laboratory results as given in the supplement of paper PMC10567573.

B1: SLC22A15 (parent)
chain: IAQYALLGYFIRSWRTLAILVNLQ

Variants of: B1
Assay: protein stability index of a GFP-peptide fusion (GPS, HEK-293T) (PSI 1-6); higher = more stable
Conditions: c terminus: a fixed tail appended
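Also: lentivirally expressed fusions sorted by FACS into six bins by GFP to DsRed ratio, PSI derived from sequencing read proportions per bin multiplied by bin number.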

| Variant | protein stability index |
| --- | --- |
| IAQYALQGYFIRSWRTLAILVNLQ [L7Q] | 2.52 |
| IAQYALWGYFIRSWRTLAILVNLQ [L7W] | 2.78 |
| IAQYALMGYFIRSWRTLAILVNLQ [L7M] | 2.97 |
| IAQYALCGYFIRSWRTLAILVNLQ [L7C] | 3.99 |
| IAQYALYGYFIRSWRTLAILVNLQ [L7Y] | 2.5 |
| IAQYALIGYFIRSWRTLAILVNLQ [L7I] | 1.71 |
| IAQYALDGYFIRSWRTLAILVNLQ [L7D] | 2.67 |
| IAQYALSGYFIRSWRTLAILVNLQ [L7S] | 3.26 |
| IAQYALLGYFIRSHRTLAILVNLQ [W14H] | 4.19 |
| IAQYALLGYFIRSERTLAILVNLQ [W14E] | 1.91 |
| IAQYALLGYFIRSVRTLAILVNLQ [W14V] | 2.46 |
| IAQYALLGYFIRSMRTLAILVNLQ [W14M] | 2.62 |
| IAQYALLGYFIRSYRTLAILVNLQ [W14Y] | 3.53 |
| IAQYALLGYFIRSPRTLAILVNLQ [W14P] | 3.8 |
| IAQYALLGYFIRSRRTLAILVNLQ [W14R] | 2.52 |
| IAQYALLGYFIRSGRTLAILVNLQ [W14G] | 3.14 |
| IAQYALLGYFIRSTRTLAILVNLQ [W14T] | 2.6 |
| IAQYALLGYFIRSQRTLAILVNLQ [W14Q] | 3.34 |
| IAQYALLGYFIRSFRTLAILVNLQ [W14F] | 2.86 |
| IAQYALLGYFIRSDRTLAILVNLQ [W14D] | 2.61 |
| IAQYALLGYFIRSLRTLAILVNLQ [W14L] | 3.89 |
| IAQYALLGYFIRSNRTLAILVNLQ [W14N] | 3.47 |
| IAQYALLGYFIRSCRTLAILVNLQ [W14C] | 4 |
| IAQYALLGYFIRSKRTLAILVNLQ [W14K] | 1.79 |

| Variant | protein stability index |
| --- | --- |
| IAQYALLGYFIRSIRTLAILVNLQ [W14I] | 3.04 |
| IAQYALLGYFCRSWRTLAILVNLQ [I11C] | 2.6 |
| IAQYALLGYFPRSWRTLAILVNLQ [I11P] | 2.1 |
| IAQYALLGYFMRSWRTLAILVNLQ [I11M] | 2.89 |
| IAQYALLGYFVRSWRTLAILVNLQ [I11V] | 2.88 |
| IAQYALLGYFNRSWRTLAILVNLQ [I11N] | 2.32 |
| IAQYALLGYFQRSWRTLAILVNLQ [I11Q] | 2.14 |
| IAQYALLGYFERSWRTLAILVNLQ [I11E] | 1.63 |
| IAQYALLGYFHRSWRTLAILVNLQ [I11H] | 2.63 |
| IAQYALLGYFSRSWRTLAILVNLQ [I11S] | 2.68 |
| IAQYALLGYFLRSWRTLAILVNLQ [I11L] | 2.34 |
| IAQYALLGYFDRSWRTLAILVNLQ [I11D] | 3.1 |
| IAQYALLGYFKRSWRTLAILVNLQ [I11K] | 3.38 |
| IAQYALLGYFTRSWRTLAILVNLQ [I11T] | 3.02 |
| IAQYALLGYFRRSWRTLAILVNLQ [I11R] | 2.37 |
| IAQYALLGYFFRSWRTLAILVNLQ [I11F] | 3.45 |
| IAQYALLGYFARSWRTLAILVNLQ [I11A] | 2.96 |
| IAQYALLGYFYRSWRTLAILVNLQ [I11Y] | 2.72 |
| IAQYALLGYTIRSWRTLAILVNLQ [F10T] | 4.13 |
| IAQYALLGYLIRSWRTLAILVNLQ [F10L] | 3.4 |
| IAQYALLGYVIRSWRTLAILVNLQ [F10V] | 3.1 |
| IAQYALLGYQIRSWRTLAILVNLQ [F10Q] | 3.4 |
| IAQYALLGYIIRSWRTLAILVNLQ [F10I] | 4.57 |
| IAQYALLGYEIRSWRTLAILVNLQ [F10E] | 4.46 |

| Variant | protein stability index |
| --- | --- |
| IAQYALLGYKIRSWRTLAILVNLQ [F10K] | 2.44 |
| IAQYALLGYCIRSWRTLAILVNLQ [F10C] | 2.86 |
| IAQYALLGYHIRSWRTLAILVNLQ [F10H] | 3.27 |
| IAQYALLGYPIRSWRTLAILVNLQ [F10P] | 2.24 |
| IAQYALLGYAIRSWRTLAILVNLQ [F10A] | 3.58 |
| IAQYALLGYGIRSWRTLAILVNLQ [F10G] | 1.67 |
| IAQYSLLGYFIRSWRTLAILVNLQ [A5S] | 2.48 |
| IAQYGLLGYFIRSWRTLAILVNLQ [A5G] | 3.8 |
| IAQYILLGYFIRSWRTLAILVNLQ [A5I] | 2.52 |
| IAQYRLLGYFIRSWRTLAILVNLQ [A5R] | 2.33 |
| IAQYKLLGYFIRSWRTLAILVNLQ [A5K] | 2.1 |
| IAQYELLGYFIRSWRTLAILVNLQ [A5E] | 1.82 |
| IAQYALLNYFIRSWRTLAILVNLQ [G8N] | 1.67 |
| IAQYALLFYFIRSWRTLAILVNLQ [G8F] | 2.71 |
| IAQYALLSYFIRSWRTLAILVNLQ [G8S] | 3.52 |
| IAQYALLLYFIRSWRTLAILVNLQ [G8L] | 1.88 |
| IAQYALLPYFIRSWRTLAILVNLQ [G8P] | 1.82 |
| IAQYALLVYFIRSWRTLAILVNLQ [G8V] | 2.97 |
| IAQYALLCYFIRSWRTLAILVNLQ [G8C] | 2.42 |
| IAQYALLKYFIRSWRTLAILVNLQ [G8K] | 1.71 |
| IAQYALLMYFIRSWRTLAILVNLQ [G8M] | 3.1 |
| IAQYALLYYFIRSWRTLAILVNLQ [G8Y] | 1.76 |
| IAQYALLHYFIRSWRTLAILVNLQ [G8H] | 2.21 |
| IAQYALLQYFIRSWRTLAILVNLQ [G8Q] | 3.07 |

| Variant | protein stability index |
| --- | --- |
| IAQYALLIYFIRSWRTLAILVNLQ [G8I] | 3.12 |
| IAQYALLEYFIRSWRTLAILVNLQ [G8E] | 1.83 |
| IAQYASLGYFIRSWRTLAILVNLQ [L6S] | 2.22 |
| IAQYAHLGYFIRSWRTLAILVNLQ [L6H] | 1.67 |
| IAQYAKLGYFIRSWRTLAILVNLQ [L6K] | 2.31 |
| IAQYAELGYFIRSWRTLAILVNLQ [L6E] | 2.55 |
| IAQYAFLGYFIRSWRTLAILVNLQ [L6F] | 2.34 |
| IAQYARLGYFIRSWRTLAILVNLQ [L6R] | 4.15 |
| IAQYANLGYFIRSWRTLAILVNLQ [L6N] | 2.26 |
| IAQYAYLGYFIRSWRTLAILVNLQ [L6Y] | 2.49 |
| IAQYAGLGYFIRSWRTLAILVNLQ [L6G] | 4.36 |
| IAQYAILGYFIRSWRTLAILVNLQ [L6I] | 3.23 |
| IAQYATLGYFIRSWRTLAILVNLQ [L6T] | 4.1 |
| IAQYAMLGYFIRSWRTLAILVNLQ [L6M] | 3.42 |
| IAQYAPLGYFIRSWRTLAILVNLQ [L6P] | 2.95 |
| IAQYAQLGYFIRSWRTLAILVNLQ [L6Q] | 2.46 |
| IAQNALLGYFIRSWRTLAILVNLQ [Y4N] | 4.26 |
| IAQFALLGYFIRSWRTLAILVNLQ [Y4F] | 3.81 |
| IAQQALLGYFIRSWRTLAILVNLQ [Y4Q] | 2.44 |
| IAQPALLGYFIRSWRTLAILVNLQ [Y4P] | 4.01 |
| IAQIALLGYFIRSWRTLAILVNLQ [Y4I] | 1.57 |
| IAQWALLGYFIRSWRTLAILVNLQ [Y4W] | 2.78 |
